# In patent US20240150447A1 (CEPHALON, published 2024):
# Key:
# human FcRn protein [1] = target: T1, human FcRn protein (human, UniProt P55899 24-297, limits assumed); assay: SPR, Ab on Protein L chip, hFcRn in flow, pH 6.0
# T1 construct: source and construct not described; also called hFcRn; FCGRT
# Description: (§1) The interaction between human immunoglobulin proteins and FcRn is known to be affected by the pH of their environment solution. To test whether this pH-dependent interaction correlates with the quantity of antibody variants in the brain parenchyma after in vivo administration, the affinity of certain variants towards FcRn were screened at pH 6.0 and pH 7.4 on a Biacore T200 system (GE Healthcare). All experiments were conducted at 25′ C. Antibodies were expressed and purified using the Expi293 expression system as described in Example 1. Cells were transfected with a heavy chain comprising the variable region of the 04 antibody used in Example 2 [SEQ ID NO: 1] fused to a heavy chain region bearing the indicated substitution in Table 11 and a light chain from Ab6 [SEQ TD NO: 24]. Although the CH sequences listed in Table 11 include the terminal lysine (K447), this terminal lysine was truncated during the cloning process for each of these variants for the purposes of this experiment. Antibody proteins were captured at a flow rate of 10 μL/min on a Protein L chip to a surface density of approximately 100 RU. Experiments conducted at pH 7.4 were conducted in PBST (1.06 mMKH2PO4, 155.17 mM7NaCl, 2.97 mM 4Na2PO4-7H2O, and 0.005 Tween-20). […] The antibody-FcRn complex was allowed to dissociate for 20 s before the chip was regenerated with 10 mM glycine pH 1.7. On-rates (ka) and off-rates (kd) were estimated by the best fit to a one-to-one Langmuir binding model by simultaneous fitting of the association and dissociation sensograms. The dissociation constant (KD) for FcRn binding was then calculated as the ratio of the off rate to the on rate (kd/ka).
# human FcRn protein [2] = target: T1, human FcRn protein; assay: SPR, Ab on Protein L chip, hFcRn in flow, pH 7.4
# Description: as §1
# T1 sequence (P55899 24-297 limits assumed, chain 1 of 2): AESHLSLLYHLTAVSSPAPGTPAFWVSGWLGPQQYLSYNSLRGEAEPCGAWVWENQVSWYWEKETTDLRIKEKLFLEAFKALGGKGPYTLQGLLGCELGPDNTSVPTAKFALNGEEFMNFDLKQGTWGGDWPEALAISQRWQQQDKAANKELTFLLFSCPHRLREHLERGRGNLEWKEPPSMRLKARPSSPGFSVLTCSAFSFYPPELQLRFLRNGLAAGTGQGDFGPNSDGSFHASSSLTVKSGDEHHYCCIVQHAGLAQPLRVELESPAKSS
# T1 sequence (chain, as listed by the source limits assumed, chain 2 of 2): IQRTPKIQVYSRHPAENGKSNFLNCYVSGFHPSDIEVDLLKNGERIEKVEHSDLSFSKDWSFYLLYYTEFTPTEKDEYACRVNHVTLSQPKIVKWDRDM
Binder,Kd (human FcRn protein [1]) [nM],koff (human FcRn protein [1]) [s⁻¹],kon (human FcRn protein [1]) [M⁻¹ s⁻¹],Kd (human FcRn protein [2]) [nM],koff (human FcRn protein [2]) [s⁻¹],kon (human FcRn protein [2]) [M⁻¹ s⁻¹]
"hIgG1 M252Y/S254T/T256E/N434W, O4 VH with Ab6 light chain (antibody, hIgG1) heavy: QVQLRQSGPGLVQPSQSLSITCTVSGFSLTSYGVHWFRQSPGKGLEWLGVIWSGGSTDYNAAFISRLSISKDNSKSQVFFKMNSLQANDTAIYYCARNRGRYNYYAMDYWGQGTSVTVSSASTKGPSVFPLAPSSKSTSGGTAALGCLVKDYFPEPVTVSWNSGALTSGVHTFPAVLQSSGLYSLSSVVTVPSSSLGTQTYICNVNHKPSNTKVDKKVEPKSCDKTHTCPPCPAPELLGGPSVFLFPPKPKDTLYITREPEVTCVVVDVSHEDPEVKFNWYVDGVEVHNAKTKPREEQYNSTYRVVSVLTVLHQDWLNGKEYKCKVSNKALPAPIEKTISKAKGQPREPQVYTLPPSRDELTKNQVSLTCLVKGFYPSDIAVEWESNGQPENNYKTTPPVLDSDGSFFLYSKLTVDKSRWQQGNVFSCSVMHEALHWHYTQKSLSLSPG light: not shown",4.38,0.00655,1.49e+06,–,–,–
"hIgG1 M252Y/T256P/V308P/N434W, O4 VH with Ab6 light chain (antibody, hIgG1) heavy: QVQLRQSGPGLVQPSQSLSITCTVSGFSLTSYGVHWFRQSPGKGLEWLGVIWSGGSTDYNAAFISRLSISKDNSKSQVFFKMNSLQANDTAIYYCARNRGRYNYYAMDYWGQGTSVTVSSASTKGPSVFPLAPSSKSTSGGTAALGCLVKDYFPEPVTVSWNSGALTSGVHTFPAVLQSSGLYSLSSVVTVPSSSLGTQTYICNVNHKPSNTKVDKKVEPKSCDKTHTCPPCPAPELLGGPSVFLFPPKPKDTLYISRPPEVTCVVVDVSHEDPEVKFNWYVDGVEVHNAKTKPREEQYNSTYRVVSVLTPLHQDWLNGKEYKCKVSNKALPAPIEKTISKAKGQPREPQVYTLPPSRDELTKNQVSLTCLVKGFYPSDIAVEWESNGQPENNYKTTPPVLDSDGSFFLYSKLTVDKSRWQQGNVFSCSVMHEALHWHYTQKSLSLSPG light: not shown",0.0414,3.83e-05,927000,49.8,0.02,442000
"hIgG1 M252Y/T256A/V308P/N434W, O4 VH with Ab6 light chain (antibody, hIgG1) heavy: QVQLRQSGPGLVQPSQSLSITCTVSGFSLTSYGVHWFRQSPGKGLEWLGVIWSGGSTDYNAAFISRLSISKDNSKSQVFFKMNSLQANDTAIYYCARNRGRYNYYAMDYWGQGTSVTVSSASTKGPSVFPLAPSSKSTSGGTAALGCLVKDYFPEPVTVSWNSGALTSGVHTFPAVLQSSGLYSLSSVVTVPSSSLGTQTYICNVNHKPSNTKVDKKVEPKSCDKTHTCPPCPAPELLGGPSVFLFPPKPKDTLYISRAPEVTCVVVDVSHEDPEVKFNWYVDGVEVHNAKTKPREEQYNSTYRVVSVLTPLHQDWLNGKEYKCKVSNKALPAPIEKTISKAKGQPREPQVYTLPPSRDELTKNQVSLTCLVKGFYPSDIAVEWESNGQPENNYKTTPPVLDSDGSFFLYSKLTVDKSRWQQGNVFSCSVMHEALHWHYTQKSLSLSPG light: not shown",0.426,0.000815,1.91e+06,90.1,0.08,893000
"hIgG1 M252Y/T256M/V308P/N434W, O4 VH with Ab6 light chain (antibody, hIgG1) heavy: QVQLRQSGPGLVQPSQSLSITCTVSGFSLTSYGVHWFRQSPGKGLEWLGVIWSGGSTDYNAAFISRLSISKDNSKSQVFFKMNSLQANDTAIYYCARNRGRYNYYAMDYWGQGTSVTVSSASTKGPSVFPLAPSSKSTSGGTAALGCLVKDYFPEPVTVSWNSGALTSGVHTFPAVLQSSGLYSLSSVVTVPSSSLGTQTYICNVNHKPSNTKVDKKVEPKSCDKTHTCPPCPAPELLGGPSVFLFPPKPKDTLYISRMPEVTCVVVDVSHEDPEVKFNWYVDGVEVHNAKTKPREEQYNSTYRVVSVLTPLHQDWLNGKEYKCKVSNKALPAPIEKTISKAKGQPREPQVYTLPPSRDELTKNQVSLTCLVKGFYPSDIAVEWESNGQPENNYKTTPPVLDSDGSFFLYSKLTVDKSRWQQGNVFSCSVMHEALHWHYTQKSLSLSPG light: not shown",0.828,0.00125,1.51e+06,37.2,0.28,7.62e+06
"hIgG1 M252Y/T256H/V308P/N434W, O4 VH with Ab6 light chain (antibody, hIgG1) heavy: QVQLRQSGPGLVQPSQSLSITCTVSGFSLTSYGVHWFRQSPGKGLEWLGVIWSGGSTDYNAAFISRLSISKDNSKSQVFFKMNSLQANDTAIYYCARNRGRYNYYAMDYWGQGTSVTVSSASTKGPSVFPLAPSSKSTSGGTAALGCLVKDYFPEPVTVSWNSGALTSGVHTFPAVLQSSGLYSLSSVVTVPSSSLGTQTYICNVNHKPSNTKVDKKVEPKSCDKTHTCPPCPAPELLGGPSVFLFPPKPKDTLYISRHPEVTCVVVDVSHEDPEVKFNWYVDGVEVHNAKTKPREEQYNSTYRVVSVLTPLHQDWLNGKEYKCKVSNKALPAPIEKTISKAKGQPREPQVYTLPPSRDELTKNQVSLTCLVKGFYPSDIAVEWESNGQPENNYKTTPPVLDSDGSFFLYSKLTVDKSRWQQGNVFSCSVMHEALHWHYTQKSLSLSPG light: not shown",2.2,0.00228,1.04e+06,103,0.19,1.82e+06
"hIgG1 M252Y/T256L/V308P/N434W, O4 VH with Ab6 light chain (antibody, hIgG1) heavy: QVQLRQSGPGLVQPSQSLSITCTVSGFSLTSYGVHWFRQSPGKGLEWLGVIWSGGSTDYNAAFISRLSISKDNSKSQVFFKMNSLQANDTAIYYCARNRGRYNYYAMDYWGQGTSVTVSSASTKGPSVFPLAPSSKSTSGGTAALGCLVKDYFPEPVTVSWNSGALTSGVHTFPAVLQSSGLYSLSSVVTVPSSSLGTQTYICNVNHKPSNTKVDKKVEPKSCDKTHTCPPCPAPELLGGPSVFLFPPKPKDTLYISRLPEVTCVVVDVSHEDPEVKFNWYVDGVEVHNAKTKPREEQYNSTYRVVSVLTPLHQDWLNGKEYKCKVSNKALPAPIEKTISKAKGQPREPQVYTLPPSRDELTKNQVSLTCLVKGFYPSDIAVEWESNGQPENNYKTTPPVLDSDGSFFLYSKLTVDKSRWQQGNVFSCSVMHEALHWHYTQKSLSLSPG light: not shown",2.85,0.00351,1.23e+06,137,0.0868,634000
"hIgG1 M252Y/T256E/V308P/N434W, O4 VH with Ab6 light chain (antibody, hIgG1) heavy: QVQLRQSGPGLVQPSQSLSITCTVSGFSLTSYGVHWFRQSPGKGLEWLGVIWSGGSTDYNAAFISRLSISKDNSKSQVFFKMNSLQANDTAIYYCARNRGRYNYYAMDYWGQGTSVTVSSASTKGPSVFPLAPSSKSTSGGTAALGCLVKDYFPEPVTVSWNSGALTSGVHTFPAVLQSSGLYSLSSVVTVPSSSLGTQTYICNVNHKPSNTKVDKKVEPKSCDKTHTCPPCPAPELLGGPSVFLFPPKPKDTLYISREPEVTCVVVDVSHEDPEVKFNWYVDGVEVHNAKTKPREEQYNSTYRVVSVLTPLHQDWLNGKEYKCKVSNKALPAPIEKTISKAKGQPREPQVYTLPPSRDELTKNQVSLTCLVKGFYPSDIAVEWESNGQPENNYKTTPPVLDSDGSFFLYSKLTVDKSRWQQGNVFSCSVMHEALHWHYTQKSLSLSPG light: not shown",0.744,0.00128,1.71e+06,70.2,0.0341,486000
"hIgG1 M252Y/T256S/V308P/N434W, O4 VH with Ab6 light chain (antibody, hIgG1) heavy: QVQLRQSGPGLVQPSQSLSITCTVSGFSLTSYGVHWFRQSPGKGLEWLGVIWSGGSTDYNAAFISRLSISKDNSKSQVFFKMNSLQANDTAIYYCARNRGRYNYYAMDYWGQGTSVTVSSASTKGPSVFPLAPSSKSTSGGTAALGCLVKDYFPEPVTVSWNSGALTSGVHTFPAVLQSSGLYSLSSVVTVPSSSLGTQTYICNVNHKPSNTKVDKKVEPKSCDKTHTCPPCPAPELLGGPSVFLFPPKPKDTLYISRSPEVTCVVVDVSHEDPEVKFNWYVDGVEVHNAKTKPREEQYNSTYRVVSVLTPLHQDWLNGKEYKCKVSNKALPAPIEKTISKAKGQPREPQVYTLPPSRDELTKNQVSLTCLVKGFYPSDIAVEWESNGQPENNYKTTPPVLDSDGSFFLYSKLTVDKSRWQQGNVFSCSVMHEALHWHYTQKSLSLSPG light: not shown",1.23,0.00186,1.52e+06,84.5,0.0564,668000
"hIgG1 M252Y/T256R/V308P/N434W, O4 VH with Ab6 light chain (antibody, hIgG1) heavy: QVQLRQSGPGLVQPSQSLSITCTVSGFSLTSYGVHWFRQSPGKGLEWLGVIWSGGSTDYNAAFISRLSISKDNSKSQVFFKMNSLQANDTAIYYCARNRGRYNYYAMDYWGQGTSVTVSSASTKGPSVFPLAPSSKSTSGGTAALGCLVKDYFPEPVTVSWNSGALTSGVHTFPAVLQSSGLYSLSSVVTVPSSSLGTQTYICNVNHKPSNTKVDKKVEPKSCDKTHTCPPCPAPELLGGPSVFLFPPKPKDTLYISRRPEVTCVVVDVSHEDPEVKFNWYVDGVEVHNAKTKPREEQYNSTYRVVSVLTPLHQDWLNGKEYKCKVSNKALPAPIEKTISKAKGQPREPQVYTLPPSRDELTKNQVSLTCLVKGFYPSDIAVEWESNGQPENNYKTTPPVLDSDGSFFLYSKLTVDKSRWQQGNVFSCSVMHEALHWHYTQKSLSLSPG light: not shown",0.433,0.001,2.31e+06,–,–,–
"hIgG1 M252Y/T256D/V308P/N434W, O4 VH with Ab6 light chain (antibody, hIgG1) heavy: QVQLRQSGPGLVQPSQSLSITCTVSGFSLTSYGVHWFRQSPGKGLEWLGVIWSGGSTDYNAAFISRLSISKDNSKSQVFFKMNSLQANDTAIYYCARNRGRYNYYAMDYWGQGTSVTVSSASTKGPSVFPLAPSSKSTSGGTAALGCLVKDYFPEPVTVSWNSGALTSGVHTFPAVLQSSGLYSLSSVVTVPSSSLGTQTYICNVNHKPSNTKVDKKVEPKSCDKTHTCPPCPAPELLGGPSVFLFPPKPKDTLYISRDPEVTCVVVDVSHEDPEVKFNWYVDGVEVHNAKTKPREEQYNSTYRVVSVLTPLHQDWLNGKEYKCKVSNKALPAPIEKTISKAKGQPREPQVYTLPPSRDELTKNQVSLTCLVKGFYPSDIAVEWESNGQPENNYKTTPPVLDSDGSFFLYSKLTVDKSRWQQGNVFSCSVMHEALHWHYTQKSLSLSPG light: not shown",1.19,0.00211,1.77e+06,52.1,0.0338,650000
